# Measured values published in publication PMC4995138.
# Biological target: Human pyruvate kinase isoform M2 (PKM2), wild type (human) (UniProt P14618)
# Assay: SEC
# Chain of Human pyruvate kinase isoform M2 (PKM2), wild type, P14618 1-531 (enzyme; other documents disagree on this pair) (P14618 whole entry, canonical isoform): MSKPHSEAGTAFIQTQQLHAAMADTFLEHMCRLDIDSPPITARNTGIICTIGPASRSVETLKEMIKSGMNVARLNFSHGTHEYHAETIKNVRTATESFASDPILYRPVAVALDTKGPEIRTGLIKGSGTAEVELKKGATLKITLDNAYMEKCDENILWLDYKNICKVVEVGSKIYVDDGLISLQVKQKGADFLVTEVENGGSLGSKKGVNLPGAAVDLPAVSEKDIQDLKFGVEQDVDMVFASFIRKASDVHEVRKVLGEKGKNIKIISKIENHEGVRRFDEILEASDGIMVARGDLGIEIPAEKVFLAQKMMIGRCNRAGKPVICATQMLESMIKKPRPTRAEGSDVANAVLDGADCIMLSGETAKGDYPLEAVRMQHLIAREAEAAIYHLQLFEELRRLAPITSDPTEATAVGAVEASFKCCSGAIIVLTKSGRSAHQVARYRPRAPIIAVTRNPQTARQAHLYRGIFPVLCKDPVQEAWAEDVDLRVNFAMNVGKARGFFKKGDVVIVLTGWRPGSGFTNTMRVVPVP
substance,measurement,value
"Human pyruvate kinase isoform M2 (PKM2), wild type, P14618 1-531 (enzyme; other documents disagree on this pair)",stoichiometry N,2
